# Measurements from publication PMC11748958.
# B1: recombinant Phα1β (peptide)
# chain: MACIPRGEICTDDCECCGCDNQCYCPPGSSLGIFKCSCAHANKYFCNRKKEKCKKA
# Biological target: human ERG potassium channel (human) (UniProt Q12809)
# Sequence of UniProt Q12809 (Q12809 whole entry): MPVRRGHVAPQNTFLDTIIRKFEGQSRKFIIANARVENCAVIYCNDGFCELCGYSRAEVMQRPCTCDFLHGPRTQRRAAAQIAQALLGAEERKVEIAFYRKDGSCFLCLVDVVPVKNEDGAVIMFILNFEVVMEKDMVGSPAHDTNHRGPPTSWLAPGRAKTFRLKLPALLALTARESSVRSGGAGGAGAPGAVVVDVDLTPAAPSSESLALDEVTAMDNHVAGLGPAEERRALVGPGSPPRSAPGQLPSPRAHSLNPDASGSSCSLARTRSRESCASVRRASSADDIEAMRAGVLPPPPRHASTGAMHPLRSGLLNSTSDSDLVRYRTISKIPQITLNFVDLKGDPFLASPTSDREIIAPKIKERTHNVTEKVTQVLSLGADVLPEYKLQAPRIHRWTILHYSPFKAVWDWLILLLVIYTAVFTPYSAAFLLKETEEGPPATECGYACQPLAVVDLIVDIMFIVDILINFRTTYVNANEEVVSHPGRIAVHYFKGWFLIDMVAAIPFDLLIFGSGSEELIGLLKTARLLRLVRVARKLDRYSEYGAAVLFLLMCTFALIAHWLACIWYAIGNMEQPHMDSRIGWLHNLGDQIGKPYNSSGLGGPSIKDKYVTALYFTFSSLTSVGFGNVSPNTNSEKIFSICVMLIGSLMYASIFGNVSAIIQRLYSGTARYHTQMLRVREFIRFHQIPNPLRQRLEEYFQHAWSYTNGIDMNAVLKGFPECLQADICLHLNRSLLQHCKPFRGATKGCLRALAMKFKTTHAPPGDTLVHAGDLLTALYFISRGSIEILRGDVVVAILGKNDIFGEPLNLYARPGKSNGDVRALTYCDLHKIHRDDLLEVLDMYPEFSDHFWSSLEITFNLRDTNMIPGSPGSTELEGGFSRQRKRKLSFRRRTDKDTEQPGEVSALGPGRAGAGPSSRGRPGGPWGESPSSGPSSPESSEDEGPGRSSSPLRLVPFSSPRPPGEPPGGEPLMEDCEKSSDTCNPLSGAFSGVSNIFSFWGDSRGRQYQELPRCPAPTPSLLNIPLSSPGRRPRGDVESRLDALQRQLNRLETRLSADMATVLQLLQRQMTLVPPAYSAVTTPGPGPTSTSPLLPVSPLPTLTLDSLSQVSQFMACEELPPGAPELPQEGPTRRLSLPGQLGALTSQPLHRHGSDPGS
binder,measurement,value
B1,"IC50 of inhibition of hERG channel activity, thallium flux (FLIPR Potassium Assay) in HEK293-hERG cells",> 900 pmol
same,"percent inhibition of hERG channel activity, thallium flux (FLIPR Potassium Assay) in HEK293-hERG cells, Phα1β 56-900 pM for 30 minutes; highest value at 900 pM",13.6%
